Values quoted from earlier work as cited in article PMC3530658.

Biological target: FEN-1 (Homo sapiens) (UniProt P39748)
UniProt P39748, sequence (P39748 whole entry): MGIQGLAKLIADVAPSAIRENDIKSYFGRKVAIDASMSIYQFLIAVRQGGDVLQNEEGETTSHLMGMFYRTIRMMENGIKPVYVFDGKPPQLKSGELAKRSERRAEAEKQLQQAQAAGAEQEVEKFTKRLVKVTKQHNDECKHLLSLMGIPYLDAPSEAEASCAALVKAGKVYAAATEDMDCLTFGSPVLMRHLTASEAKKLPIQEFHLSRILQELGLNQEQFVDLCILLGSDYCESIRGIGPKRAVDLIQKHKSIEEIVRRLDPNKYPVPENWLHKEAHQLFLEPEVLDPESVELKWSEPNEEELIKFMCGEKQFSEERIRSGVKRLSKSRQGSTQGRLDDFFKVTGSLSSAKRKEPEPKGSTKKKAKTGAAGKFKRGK

NEIL1 CTD (from UniProt Q96FI4)
Kd: 200 nM
